Assay [1] addresses T1, human Tissue Factor (hTF) (human, UniProt P13726 33-295). In words: cell-based or functional assay.
For assay [2], the target named is T2, pig TF ECD-His (TF-His) protein (pig (Sus scrofa)).
T2 construct: also called pig TF-His; pTF
T2 chain: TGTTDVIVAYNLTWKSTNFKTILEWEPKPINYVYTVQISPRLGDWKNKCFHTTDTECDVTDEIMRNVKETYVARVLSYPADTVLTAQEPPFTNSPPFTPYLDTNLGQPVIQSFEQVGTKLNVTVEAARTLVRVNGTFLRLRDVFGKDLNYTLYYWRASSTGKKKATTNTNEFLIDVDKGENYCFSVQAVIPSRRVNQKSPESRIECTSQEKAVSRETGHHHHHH
The experiment in a line: Biacore; antibody captured by anti-human IgG on CM5 chip, titration of pig TF-His, 1:1 model. On the technique in general: SPR reads the build-up and loss of mass on a sensor chip optically.
Procedure: The ability of certain antibodies was tested for binding to pig TF. For pig TF Biacore-based measurements, a given anti-TF antibody was captured by an anti-human IgG antibody covalently coupled to a CM5 chip (GE Healthcare Bio-Sciences). Association between the anti-TF antibodies and a five-point three-fold titration of pig TF-His starting at 100 nM was measured for 180 to 240 sec. Subsequently, dissociation between the anti-TF antibody and TF-His was measured for 1800 sec. Kinetic data was analyzed and fitted globally using a 1:1 binding model.

Assay [3] addresses T3, rabbit TF ECD-His (TF-His) protein (rabbit (Oryctolagus cuniculus), UniProt P24055 33-250).
T3 construct: also called rabbit TF-His
In words: Biacore; antibody captured by anti-human IgG on CM5 chip, titration of rabbit TF-His, 1:1 model.
Procedure: The ability of certain antibodies was tested for binding to rabbit TF. For rabbit TF Biacore-based measurements, a given anti-TF antibody was captured by an anti-human IgG antibody covalently coupled to a CM5 chip (GE Healthcare Bio-Sciences). Association between the anti-TF antibodies and a five-point three-fold titration of rabbit TF-His starting at 100 nM was measured for 180 to 240 sec. Subsequently, dissociation between the anti-TF antibody and TF-His was measured for 1800 sec. Kinetic data was analyzed and fitted globally using a 1:1 binding model.

The target of assay [4] is T1, human Tissue Factor (hTF). The experiment in a line: cell-based or functional assay. This is another data set of the same source.
Assay [5] deals with T4, human Tissue Factor on human TF-positive cells (human, UniProt P13726 33-295).
T4 construct: also called hTF; CD142
In words: flow cytometry, titration of the MC-vc-PAB-MMAE ADC on HCT-116 cells (human TF), 4-parameter fit of MFI.

A further assay has as its target human Tissue Factor (TF) (human, UniProt P13726 33-295). In words: cell-based or functional assay.

Numbering of substitutions follows the chain as printed.

T3 sequence (P24055 other isoform, or with tags, fused parts or gaps): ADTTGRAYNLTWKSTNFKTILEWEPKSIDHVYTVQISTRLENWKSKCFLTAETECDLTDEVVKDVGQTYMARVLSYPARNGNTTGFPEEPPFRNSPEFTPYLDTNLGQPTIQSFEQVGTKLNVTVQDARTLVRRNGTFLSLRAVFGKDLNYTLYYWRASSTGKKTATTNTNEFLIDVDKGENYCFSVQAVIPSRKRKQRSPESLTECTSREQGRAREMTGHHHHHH

B1: anti-TF antibody 43D7 (antibody, human IgG1, V domains shown)
VH: QVQLQQWGAGLLKPSETLSLTCAVYGGSLSGYYWSWIRQPPGKGLEWIGEIGASGSTRYNPSLKSRVTISVDTSKNQFSLKLSSVTAADTAVYYCARDTPYYYEGGYYYYMDVWGKGTTVTVSS
VL: EIVLTQSPGTLSLSPGERATLSCRASDSVDSSYLAWYQQKPGQAPRLLIYGAFSRANGIPDRFSGSGSGTDFTLTISRLEPEDFAVYYCQQAGVVPYTFGGGTKVEIK
notes: Human IgG1
Consider B1, for which the “IC50, cell viability of A431 cells, Secondary ADC (antibody with anti-human Fc Fab:MMAF), Continuous (FIG. 18B)” value (from here on “IC50, cell viability of A431 cells … (FIG. 18B)”) in assay [1] is 0.1 nM. Further, the Kd turned out to be 8.8 nM in assay [2] and 6.8 nM in assay [3].

B2: anti-TF antibody 43D7 conjugated to MC-vc-PAB-MMAE (antibody, IgG1, V domains shown)
VH: B1 VH
VL: B1 VL
modifications: MC-vc-PAB-MMAE on cysteines of the partially reduced antibody (chain and positions not stated), DAR 3-4
Turning to B2, in assay [1], the “IC50, cell viability of A431 cells, Primary ADC, Continuous (FIG. 20A)” value (shortened to “IC50, cell viability of A431 cells … (FIG. 20A)”) was found to be 0.06 nM; the “IC50, cell viability of HPAF-II cells, Primary ADC, Continuous (FIG. 22E)” value (shortened to “IC50, cell viability of HPAF-II cells”) was 0.05 nM; the “IC50, cell viability of MDA-MB-231 cells, Primary ADC, Continuous (FIG. 22D)” value (“IC50, cell viability of MDA-MB-231 cells” below) is 0.14 nM. Besides, in assay [4], the “IC50, cell viability of A431 cells, Primary ADC, 4 hr, followed by washout (FIG. 20B)” value (“IC50, cell viability of A431 cells … (FIG. 20B)” for short) was found to be 0.28 nM and the “IC50, cell viability of A431 cells, Primary ADC, 4 hr, followed by washout, absence of FVIIa (FIG. 21A)” value (“IC50, cell viability of A431 cells … (FIG. 21A)” below) stood at 0.14 nM.

B3: anti-TF antibody 43D8 (antibody, human IgG1, V domains shown)
VH: B1 VH
VL: B1 VL with D27Q, D30S, Y33F, F53Y, N57T
notes: Human IgG1
Take B3: the dissociation constant (Kd) amounted to 19.2 nM in assay [2] and 7.7 nM in assay [3].

B4: anti-TF antibody 43B1 conjugated to MC-vc-PAB-MMAE (antibody, IgG1, V domains shown)
VH: QVQLQESGPGLVKPSQTLSLTCTVSGGSISSGQYWSWIRQHPGKGLEWIGEIYYSGSTRYNPSLKSRVTISVDTSKNQFSLKLSSVTAADTAVYYCARDAPYYYGGGYYYYMDVWGKGTTVTVSS
VL: B1 VL with D27E, F53S, S54T, A56Q, N57T
modifications: MC-vc-PAB-MMAE on cysteines of the partially reduced antibody (chain and positions not stated), DAR 3-4
In the case of B4, in assay [1], the “IC50, cell viability of A431 cells … (FIG. 20A)” value came out at 0.08 nM; the “IC50, cell viability of HPAF-II cells” value amounted to 0.05 nM; the “IC50, cell viability of MDA-MB-231 cells” value is 0.14 nM. In addition, in assay [4], the “IC50, cell viability of A431 cells … (FIG. 20B)” value was found to be 0.36 nM and the “IC50, cell viability of A431 cells … (FIG. 21A)” value worked out at 0.19 nM.

B5: 43Ea-vc-MMAE (antibody, IgG1, V domains shown)
VH: B4 VH with A100T, G105D
VL: B1 VL with D27Q, D30S, F53S, N57T, A92V
modifications: MC-vc-PAB-MMAE on cysteines of the partially reduced antibody (chain and positions not stated), DAR 3-4
For B5, in assay [1], the “IC50, cell viability of A431 cells … (FIG. 20A)” value was determined as 0.09 nM; the “IC50, cell viability of HPAF-II cells” value was found to be 0.06 nM; the “IC50, cell viability of MDA-MB-231 cells” value was determined as 0.15 nM. For the same molecule, in assay [4], the “IC50, cell viability of A431 cells … (FIG. 20B)” value worked out at 0.43 nM and the “IC50, cell viability of A431 cells … (FIG. 21A)” value is 0.24 nM.

B6: tisotumab vedotin (TF-011) ADC (antibody, V domains shown)
VH: EVQLLESGGGLVQPGGSLRLSCAASGFTFSNYAMSWVRQAPGKGLEWVSSISGSGDYTYYTDSVKGRFTISRDNSKNTLYLQMNSLRAEDTAVYYCARSPWGYYLDSWGQGTLVTVSS
VL: DIQMTQSPPSLSASAGDRVTITCRASQGISSRLAWYQQKPEKAPKSLIYAASSLQSGVPSRFSGSGSGTDFTLTISSLQPEDFATYYCQQYNSYPYTFGQGTKLEIK
modifications: MC-vc-PAB-MMAE on cysteines of the partially reduced antibody (chain and positions not stated), DAR 3-4
As to B6, the “IC50, cell viability of A431 cells … (FIG. 20A)” value in assay [1] was found to be 0.05 nM. In addition, the “IC50, cell viability of A431 cells … (FIG. 20B)” value in assay [4] amounted to 0.17 nM.

B7: anti-TF antibody 25A (antibody, human IgG1, V domains shown)
VH: QVQLVQSGAEVKKPGASVKVSCKASGYTFDVYGISWVRQAPGQGLEWMGWIAPYNGNTNYAQKLQGRVTMTTDTSTSTAYMELRSLRSDDTAVYYCARDAGTYSPFGYGMDVWGQGTTVTVSS
VL: DIQMTQSPSTLSASVGDRVTITCRASQSISSWLAWYQQKPGKAPKLLIYKASSLESGVPSRFSGSGSGTEFTLTISSLQPDDFATYYCQQFQSLPPFTFGGGTKVEIK
notes: Human IgG1
With B7, the “IC50, cell viability of A431 cells … (FIG. 18B)” value in assay [1] stood at 0.11 nM. In addition, the results for the Kd in assay [2] and in assay [3] were 18.7 nM and 50.5 nM, respectively.

B8: 25A-vc-MMAE (antibody, IgG1, V domains shown)
VH: B7 VH
VL: B7 VL
modifications: MC-vc-PAB-MMAE on cysteines of the partially reduced antibody (chain and positions not stated), DAR 3-4
notes: Antibody-drug conjugate (primary ADC) of the IgG1 antibody; also called 25A ADC; 25A conjugated to MC-vc-PAB-MMAE
Take B8: in assay [1], the “IC50, cell viability of A431 cells … (FIG. 20A)” value amounted to 0.09 nM; the “IC50, cell viability of HPAF-II cells” value worked out at 0.06 nM; the “IC50, cell viability of MDA-MB-231 cells” value was 0.14 nM. Also, in assay [4], the “IC50, cell viability of A431 cells … (FIG. 20B)” value turned out to be 0.35 nM and the “IC50, cell viability of A431 cells … (FIG. 21A)” value was found to be 0.18 nM. In assay [5], the EC50 turned out to be 0.34 nM.

B9: anti-TF antibody 25G1 conjugated to MC-vc-PAB-MMAE (antibody, IgG1, V domains shown)
VH: B7 VH with D30R, V31S, I51V, N55S, F106Y
VL: B7 VL with Q27H, S30D, S53Y, Q90L
modifications: MC-vc-PAB-MMAE on cysteines of the partially reduced antibody (chain and positions not stated), DAR 3-4
notes: Antibody-drug conjugate (primary ADC) of the IgG1 antibody; also called 25G1 ADC
Take B9: in assay [1], the “IC50, cell viability of A431 cells … (FIG. 20A)” value came to 0.06 nM; the “IC50, cell viability of HPAF-II cells” value is 0.04 nM; the “IC50, cell viability of MDA-MB-231 cells” value amounted to 0.09 nM. In addition, in assay [4], the “IC50, cell viability of A431 cells … (FIG. 20B)” value was 0.19 nM and the “IC50, cell viability of A431 cells … (FIG. 21A)” value was 0.1 nM. Besides, in assay [5], a half-maximal effect (EC50) was put at 0.17 nM.

B10: anti-TF antibody 25G9 (antibody, human IgG1, V domains shown)
VH: B7 VH with D30R, V31S, I51V, N55S, F106Y
VL: B7 VL with R24Q, S30D, K50S, S53Y, Q90R
notes: Human IgG1
With B10, the Kd in assay [2] stood at 3.3 nM; in assay [3] it was 4.2 nM.

B11: anti-TF antibody 25G1 (antibody, human IgG1, V domains shown)
VH: B7 VH with D30R, V31S, I51V, N55S, F106Y
VL: B7 VL with Q27H, S30D, S53Y, Q90L
notes: Human IgG1
In the case of B11, the “IC50, cell viability of A431 cells … (FIG. 18B)” value in assay [1] was 0.08 nM. In addition, the values for the Kd in assay [2] and in assay [3] were 2.6 nM and 3.6 nM, respectively.

B12: anti-TF antibody 25G (antibody, human IgG1, V domains shown)
VH: B7 VH with D30R, V31S, I51V, F106Y
VL: B7 VL
notes: Human IgG1
For B12, the dissociation constant (Kd) in assay [2] amounted to 26 nM; in assay [3], 75.5 nM.

B13: anti-TF antibody 25A5 (antibody, human IgG1, V domains shown)
VH: B7 VH with N55S
VL: B7 VL with Q27E, S31N, S52Y, S56Y, S93K
notes: Human IgG1
B13: the Kd in assay [2] turned out to be 5.2 nM; in assay [3], 5.4 nM.

B14: anti-TF antibody 25A3 (antibody, human IgG1, V domains shown)
VH: B7 VH with N55S
VL: B7 VL with R24Q, S30N, S31N, S52Y, S53N, Q90L
notes: Human IgG1
In the case of B14, the “IC50, cell viability of A431 cells … (FIG. 18B)” value in assay [1] was 0.09 nM. Also, the Kd in assay [2] is 5.5 nM.

B15: anti-TF antibody 25A5-T (antibody, human IgG1, V domains shown)
VH: B7 VH with V31A, N55S
VL: B7 VL with Q27E, S31N, S52Y, S56Y, S93K
notes: Human IgG1
For the molecule B15, the values for the Kd in assay [2] and in assay [3] were 4.5 nM and 5.4 nM, respectively.

B16: 25A3-vc-MMAE (antibody, IgG1, V domains shown)
VH: B7 VH with N55S
VL: B7 VL with R24Q, S30N, S31N, S52Y, S53N, Q90L
modifications: MC-vc-PAB-MMAE on cysteines of the partially reduced antibody (chain and positions not stated), DAR 3-4
notes: Antibody-drug conjugate (primary ADC) of the IgG1 antibody; also called 25A3 ADC; 25A3 MMAE ADC
For B16, in assay [1], the “IC50, cell viability of A431 cells … (FIG. 20A)” value was found to be 0.07 nM; the “IC50, cell viability of HPAF-II cells” value came out at 0.05 nM; the “IC50, cell viability of MDA-MB-231 cells” value was determined as 0.11 nM. Besides, in assay [4], the “IC50, cell viability of A431 cells … (FIG. 20B)” value is 0.19 nM and the “IC50, cell viability of A431 cells … (FIG. 21A)” value was 0.12 nM. Further, a half-maximal effect in assay [5] (EC50) was put at 0.17 nM.

B17: 5G9 (humanized TF8-5G9, CNTO 860) (antibody, V domains shown)
VH: QVQLVESGGGVVQPGRSLRLSCKASGFNIKDYYMHWVRQAPGKGLEWIGLIDPENGNTIYDPKFQGRFTISADNSKNTLFLQMDSLRPEDTAVYYCARDNSYYFDYWGQGTPVTVSS
VL: DIQMTQSPSSLSASVGDRVTITCKASQDIRKYLNWYQQKPGKAPKLLIYYATSLADGVPSRFSGSGSGTDYTFTISSLQPEDIATYYCLQHGESPYTFGQGTKLEIT
Consider B17, for which, in the assay with human Tissue Factor (TF), the “% FXa at 12.5 nM antibody” value was 37%, the “% FXa at 25 nM antibody” value came to 33%, the “% FXa at 50 nM antibody” value was determined as 30% and the “% FXa at 100 nM antibody” value stood at 30%.

For orientation: Kd means the equilibrium constant for the complex coming apart. One may read the EC50 as the concentration giving half of the maximal effect. Low readings indicate higher potency in that assay, high ones lower potency in that assay.

These data come from US20250361322A1 (ICONIC THERAPEUTICS, published 2025).
